This test addresses T1, human Nectin-4 extracellular antigen hNectin-4-His (human, UniProt Q96NY8 32-349).
T1 construct: C-terminal 8xHis tag included
T1 sequence: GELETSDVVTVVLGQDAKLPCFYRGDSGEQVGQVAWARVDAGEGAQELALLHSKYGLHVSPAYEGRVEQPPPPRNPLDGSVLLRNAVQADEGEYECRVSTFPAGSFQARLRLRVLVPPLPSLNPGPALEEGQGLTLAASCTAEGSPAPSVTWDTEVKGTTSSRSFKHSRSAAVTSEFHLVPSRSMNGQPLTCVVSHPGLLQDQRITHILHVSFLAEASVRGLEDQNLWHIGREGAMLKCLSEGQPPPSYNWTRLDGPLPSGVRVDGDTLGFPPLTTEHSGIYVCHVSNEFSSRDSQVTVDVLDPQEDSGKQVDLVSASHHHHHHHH
Put plainly: ELISA, phage scFv supernatant 1:50. As for the experimental part: The supernatants were diluted 50-fold, and the binding OD values of the diluted supernatants to hNectin-4-His were measured by ELISA. The samples were serially 3-fold diluted, and the EC₅₀ titer for the binding of the supernatants to the antigen was measured by ELISA. […] The light chain variable region sequence is set forth in SEQ ID NO: 25. The OD value is the measurement of ELISA, and the EC₅₀ value denotes the EC₅₀ value of the binding activity titer of the supernatant to the antigen.
(In an ELISA, binding on a coated surface is turned into a signal by an enzyme label.)

Substitutions are numbered along the chain they refer to.

Drawing on patent US20260144882A1 (BIO THERA SOLUTIONS, published 2026), this text covers OD value for 30 molecules.

B1: 1F3-1G5 scFv (scFv, V domains shown)
VH: EVQLVESGGGLVQPGGSLRLSCAASGFSFGSYGMSWVRQAPGKGLEWVSGIKPSTSTTYYADSVKGRFTISRDNSKNTLYLQMNSLRAEDTAVYYCARAELLAFDVYTASDYWGQGTLVTVSS
VL: DIQMTQSPSSLSASVGDRVTITCRASQGISSYLAWYQQKPGKAPKLLIYAASSLQSGVPSRFSGSGSGTDFTLTISSLQPEDFATYYCQQHYTTPPTFGQGTKVEIKR
notes: phage clone supernatant
B1 returned an OD value of 1.56 OD.

B2: 1F3-1D6 scFv (scFv, V domains shown)
VH: EVQLVESGGGLVQPGGSLRLSCAASGGSFYGFGMSWVRQAPGKGLEWVSGIYSHDADKRYADSVKGRFTISRDNSKNTLYLQMNSLRAEDTAVYYCARAELLAFDVYTASDYWGQGTLVTVSS
VL: B1 VL
notes: phage clone supernatant
On to B2, for which the OD value is 1.44 OD.

B3: 1F3-1E1 scFv (scFv, V domains shown)
VH: B1 VH with G30D, S31D, G33A, G50I, K52Y, S54T, T55G, T58N
VL: B1 VL
notes: phage clone supernatant
B3 yielded an OD value of 1.64 OD.

B4: 1F3-2B1 scFv (scFv, V domains shown)
VH: B1 VH with F27Y, S28N, G30D, S31N, G33A, S54D, T55S, S56A
VL: B1 VL
notes: phage clone supernatant
In the case of B4, the OD value was 1.62 OD.

B5: 1F3-2E8 scFv (scFv, V domains shown)
VH: B1 VH with F27Y, G30S, S31D, G50W, K52S, T55K, S56G, T57S, T58A, Y59S
VL: B1 VL
notes: phage clone supernatant
As to B5, the OD value amounted to 1.56 OD.

B6: 1F3-2B2-2 scFv (scFv, V domains shown)
VH: B1 VH with F27Y, G30S, S31D, Y32F, G50R, K52D, T55G, S56W, T57S, Y59S
VL: B1 VL
notes: phage clone supernatant
B6 had an OD value of 1.59 OD.

B7: 1F3-2A11 scFv (scFv, V domains shown)
VH: EVQLVESGGGLVQPGGSLRLSCAASGDNFYTFYMSWVRQAPGKGLEWVSGIKPTGSYINYADSVKGRFTISRDNSKNTLYLQMNSLRAEDTAVYYCARAELLAFDVYTASDYWGQGTLVTVSS
VL: B1 VL
notes: phage clone supernatant
B7 gave an OD value of 1.52 OD.

B8: 1F3-1D12 scFv (scFv, V domains shown)
VH: B1 VH with F27Y, S28N, G30T, S31D, K52S, P53G, T55G, S56D, T57N, T58K
VL: B1 VL
notes: phage clone supernatant
In turn, B8 yielded an OD value of 1.63 OD.

B9: 1F3-1H11 scFv (scFv, V domains shown)
VH: EVQLVESGGGLVQPGGSLRLSCAASGFNFTDYGMSWVRQAPGKGLEWVSRISQWGDTSNYADSVKGRFTISRDNSKNTLYLQMNSLRAEDTAVYYCARAELLAFDVYTASDYWGQGTLVTVSS
VL: B1 VL
notes: phage clone supernatant
In the case of B9, the OD value was 1.65 OD.

B10: 1F3-1A9 scFv (scFv, V domains shown)
VH: EVQLVESGGGLVQPGGSLRLSCAASGYSFDNYAMSWVRQAPGKGLEWVSRISPTGGYASYADSVKGRFTISRDNSKNTLYLQMNSLRAEDTAVYYCARAELLAFDVYTASDYWGQGTLVTVSS
VL: B1 VL
notes: phage clone supernatant
B10 registered an OD value of 1.64 OD.

B11: 1F3-1E10 scFv (scFv, V domains shown)
VH: B9 VH with T30S, D31S, Q53P, W54Y, G55T, T57N, S58K, N59Y
VL: B1 VL
notes: phage clone supernatant
As for B11, the OD value turned out to be 1.54 OD.

B12: 1F3-1B1 scFv (scFv, V domains shown)
VH: B1 VH with S28T, S31T, S54G, T55D
VL: B1 VL
notes: phage clone supernatant
The molecule B12 had an OD value of 1.65 OD.

B13: 1F3-2A12 scFv (scFv, V domains shown)
VH: B1 VH with F27Y, G30D, S54T, T55G, S56A, T57S
VL: B1 VL
notes: phage clone supernatant
Take B13: the OD value was 1.65 OD.

B14: 1F3-2D2 scFv (scFv, V domains shown)
VH: B1 VH with S28N, G30S, G50R, K52S, S54Y, S56G, Y59H
VL: B1 VL
notes: phage clone supernatant
B14 displayed an OD value of 1.59 OD.

B15: 1F3-2D8 scFv (scFv, V domains shown)
VH: B10 VH with D30S, N31D, A33G, T54S, G55K, G56A, Y57V, A58K, S59D
VL: B1 VL
notes: phage clone supernatant
B15 came in with an OD value of 1.56 OD.

B16: 1F3-1H3 scFv (scFv, V domains shown)
VH: B1 VH with S28N, G30Y, S31N, S54H, T55S, S56D, T57V, T58A, Y59H
VL: B1 VL
notes: phage clone supernatant
B16 gave an OD value of 1.73 OD.

B17: 1F3-1F4 scFv (scFv, V domains shown)
VH: B2 VH with G27D, S28I, Y30T, F32S, G33S, S53A, H54S, D55G, A56S
VL: B1 VL
notes: phage clone supernatant
For B17, the OD value worked out at 1.42 OD.

B18: 1F3-1G11 scFv (scFv, V domains shown)
VH: B1 VH with F27Y, G30T, S31G, K52S, T55G, S56G, T58I, Y59G
VL: B1 VL
notes: phage clone supernatant
In turn, B18 returned an OD value of 1.65 OD.

B19: 1F3-1D1 scFv (scFv, V domains shown)
VH: EVQLVESGGGLVQPGGSLRLSCAASGDIFTNYSMSWVRQAPGKGLEWVSGIYPSGDNNRYADSVKGRFTISRDNSKNTLYLQMNSLRAEDTAVYYCARAELLAFDVYTASDYWGQGTLVTVSS
VL: B1 VL
notes: phage clone supernatant
Consider B19, for which the OD value is 1.29 OD.

B20: 1F3-2B2 scFv (scFv, V domains shown)
VH: B10 VH with S28N, D30Y, N31S, A33G, R50I, T54D, A58K, S59R
VL: B1 VL
notes: phage clone supernatant
B20 displayed an OD value of 1.57 OD.

B21: 1F3-1C4 scFv (scFv, V domains shown)
VH: B1 VH with S28T, S31D, S54W, T55G, T57G
VL: B1 VL
notes: phage clone supernatant
The molecule B21 registered an OD value of 1.59 OD.

B22: 1F3-2C6 scFv (scFv, V domains shown)
VH: B19 VH with P53A, D56S, N57D, N58K
VL: B1 VL
notes: phage clone supernatant
With B22, the OD value came out at 1.38 OD.

B23: 1F3-1C11 scFv (scFv, V domains shown)
VH: B1 VH with S28N, G30S, G50A, K52S, P53G, T55G, S56G, T57S
VL: B1 VL
notes: phage clone supernatant
For the molecule B23, the OD value worked out at 1.63 OD.

B24: 1F3-1E4 scFv (scFv, V domains shown)
VH: B9 VH with N28S, T30G, D31T, Q53G, W54D, G55S, D56A, T57N, S58I, N59R
VL: B1 VL
notes: phage clone supernatant
B24 yielded an OD value of 1.61 OD.

B25: 1F3-1G2 scFv (scFv, V domains shown)
VH: B9 VH with F27Y, N28T, T30G, S52D, Q53P, D56A, T57S, S58I, N59R
VL: B1 VL
notes: phage clone supernatant
B25 gave an OD value of 1.6 OD.

B26: 1F3-1G7 scFv (scFv, V domains shown)
VH: B19 VH with T30S, N57S, N58R
VL: B1 VL
notes: phage clone supernatant
With B26, the OD value was 1.56 OD.

B27: 1F3-2B9 scFv (scFv, V domains shown)
VH: B1 VH with S28N, G30D, G33A, S54H, S56D, T57D, T58I
VL: B1 VL
notes: phage clone supernatant
For B27, the OD value was 1.57 OD.

B28: 1F3-1E9 scFv (scFv, V domains shown)
VH: B1 VH with S28T, G30D, S31D, G33A, T55S, S56W
VL: B1 VL
notes: phage clone supernatant
As for B28, the OD value came out at 1.55 OD.

B29: 1F3-2C9 scFv (scFv, V domains shown)
VH: B9 VH with T30G, D31G, Q53P, W54G, G55D, D56S, S58P, N59R
VL: B1 VL
notes: phage clone supernatant
As for B29, the OD value stood at 1.59 OD.

B30: 1F3-1F8 scFv (scFv, V domains shown)
VH: B9 VH with T30G, D31N, Q53G, W54D, D56S, T57N, S58I
VL: B1 VL
notes: phage clone supernatant
In turn, B30 gave an OD value of 1.67 OD.
